In publication PMC6336796 (Nature Communications, 2019):

Target: T1, Flag-CENP-E (UniProt Q02224 1-2701)
T1 construct: CENP-E; Primers are in Supplementary Data 3; also called Flag-CENP-E protein; source: HEK293T, transfected, mitotic cells
Experiment: pull-down; Flag-CENP-E purified from mitotic HEK293T lysate and eluted with 3x Flag peptide, incubated with Myc-GFP or Myc-HOIP bound to anti-c-Myc affinity gel; blot with anti-Flag
Details: both partners purified

T1 sequence (Q02224 whole entry): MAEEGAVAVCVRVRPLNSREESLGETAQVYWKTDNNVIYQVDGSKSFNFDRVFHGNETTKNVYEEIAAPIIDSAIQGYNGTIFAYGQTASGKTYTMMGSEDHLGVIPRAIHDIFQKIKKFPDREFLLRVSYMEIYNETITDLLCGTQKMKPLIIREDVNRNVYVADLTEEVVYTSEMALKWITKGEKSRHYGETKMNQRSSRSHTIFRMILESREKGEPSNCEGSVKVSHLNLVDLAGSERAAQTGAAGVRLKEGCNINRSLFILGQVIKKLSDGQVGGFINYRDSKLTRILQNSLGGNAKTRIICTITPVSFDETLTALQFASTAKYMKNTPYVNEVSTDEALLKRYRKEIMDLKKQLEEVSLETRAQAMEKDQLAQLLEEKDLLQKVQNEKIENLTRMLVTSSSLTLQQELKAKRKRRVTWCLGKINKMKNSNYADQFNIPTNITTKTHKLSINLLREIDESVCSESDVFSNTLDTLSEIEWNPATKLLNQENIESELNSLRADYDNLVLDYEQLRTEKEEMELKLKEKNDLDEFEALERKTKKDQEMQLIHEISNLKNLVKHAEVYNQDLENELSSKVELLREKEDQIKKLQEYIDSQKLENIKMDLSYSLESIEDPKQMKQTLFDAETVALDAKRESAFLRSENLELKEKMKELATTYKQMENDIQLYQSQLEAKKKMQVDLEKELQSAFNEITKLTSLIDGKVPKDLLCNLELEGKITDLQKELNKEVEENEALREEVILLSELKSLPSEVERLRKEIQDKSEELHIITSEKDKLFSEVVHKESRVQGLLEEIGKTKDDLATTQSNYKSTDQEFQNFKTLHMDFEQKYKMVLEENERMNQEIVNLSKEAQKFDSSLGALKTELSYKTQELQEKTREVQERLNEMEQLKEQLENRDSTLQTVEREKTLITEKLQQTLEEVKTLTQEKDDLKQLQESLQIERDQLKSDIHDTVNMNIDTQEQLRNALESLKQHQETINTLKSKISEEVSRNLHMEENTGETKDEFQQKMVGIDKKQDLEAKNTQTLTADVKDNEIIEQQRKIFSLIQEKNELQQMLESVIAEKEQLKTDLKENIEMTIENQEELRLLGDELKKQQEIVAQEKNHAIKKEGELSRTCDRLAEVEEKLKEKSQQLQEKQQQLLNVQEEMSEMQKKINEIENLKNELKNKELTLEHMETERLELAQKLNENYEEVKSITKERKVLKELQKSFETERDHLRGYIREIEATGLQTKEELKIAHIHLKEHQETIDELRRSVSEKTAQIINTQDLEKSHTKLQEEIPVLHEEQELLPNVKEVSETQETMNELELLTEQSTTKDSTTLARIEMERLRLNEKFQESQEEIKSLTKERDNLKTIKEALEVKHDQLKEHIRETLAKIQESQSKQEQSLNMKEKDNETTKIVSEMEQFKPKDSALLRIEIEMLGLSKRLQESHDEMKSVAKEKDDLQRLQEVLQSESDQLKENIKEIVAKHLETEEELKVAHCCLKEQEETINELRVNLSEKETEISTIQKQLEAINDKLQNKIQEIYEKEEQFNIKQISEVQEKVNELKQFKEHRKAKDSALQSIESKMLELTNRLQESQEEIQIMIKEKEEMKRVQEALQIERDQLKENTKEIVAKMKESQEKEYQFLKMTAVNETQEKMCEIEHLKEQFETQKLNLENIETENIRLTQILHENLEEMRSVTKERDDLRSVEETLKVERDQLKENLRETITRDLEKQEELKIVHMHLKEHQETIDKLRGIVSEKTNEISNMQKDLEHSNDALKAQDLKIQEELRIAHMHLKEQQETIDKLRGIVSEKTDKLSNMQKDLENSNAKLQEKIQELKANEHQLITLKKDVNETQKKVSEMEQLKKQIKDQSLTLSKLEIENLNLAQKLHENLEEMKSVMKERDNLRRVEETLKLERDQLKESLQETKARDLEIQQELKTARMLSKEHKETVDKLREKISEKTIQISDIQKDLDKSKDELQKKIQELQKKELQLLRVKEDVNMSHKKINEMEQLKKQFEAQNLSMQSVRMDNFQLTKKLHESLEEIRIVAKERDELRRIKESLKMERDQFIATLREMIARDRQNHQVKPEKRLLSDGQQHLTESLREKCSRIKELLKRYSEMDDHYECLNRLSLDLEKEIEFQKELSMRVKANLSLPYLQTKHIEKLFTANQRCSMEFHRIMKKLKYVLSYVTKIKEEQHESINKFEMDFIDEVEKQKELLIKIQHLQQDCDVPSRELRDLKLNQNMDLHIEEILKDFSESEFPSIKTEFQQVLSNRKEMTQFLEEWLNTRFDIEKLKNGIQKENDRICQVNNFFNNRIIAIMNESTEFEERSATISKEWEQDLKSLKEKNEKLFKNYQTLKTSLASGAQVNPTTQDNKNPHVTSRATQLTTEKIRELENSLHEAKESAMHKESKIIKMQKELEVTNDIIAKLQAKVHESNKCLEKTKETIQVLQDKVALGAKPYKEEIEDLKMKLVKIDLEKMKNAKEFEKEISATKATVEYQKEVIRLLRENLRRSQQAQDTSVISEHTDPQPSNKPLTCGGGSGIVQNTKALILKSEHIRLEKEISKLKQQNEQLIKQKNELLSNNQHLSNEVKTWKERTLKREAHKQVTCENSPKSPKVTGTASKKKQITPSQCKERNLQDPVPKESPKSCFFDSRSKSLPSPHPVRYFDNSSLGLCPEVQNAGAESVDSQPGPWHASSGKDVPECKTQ

binding result: binds
B1: Myc-HOIP (enzyme, UniProt Q96EP0 1-1072, looked up)
chain: MPGEEEERAFLVAREELASALRRDSGQAFSLEQLRPLLASSLPLAARYLQLDAARLVRCNAHGEPRNYLNTLSTALNILEKYGRNLLSPQRPRYWRGVKFNNPVFRSTVDAVQGGRDVLRLYGYTEEQPDGLSFPEGQEEPDEHQVATVTLEVLLLRTELSLLLQNTHPRQQALEQLLEDKVEDDMLQLSEFDPLLREIAPGPLTTPSVPGSTPGPCFLCGSAPGTLHCPSCKQALCPACDHLFHGHPSRAHHLRQTLPGVLQGTHLSPSLPASAQPRPQSTSLLALGDSSLSSPNPASAHLPWHCAACAMLNEPWAVLCVACDRPRGCKGLGLGTEGPQGTGGLEPDLARGRWACQSCTFENEAAAVLCSICERPRLAQPPSLVVDSRDAGICLQPLQQGDALLASAQSQVWYCIHCTFCNSSPGWVCVMCNRTSSPIPAQHAPRPYASSLEKGPPKPGPPRRLSAPLPSSCGDPEKQRQDKMREEGLQLVSMIREGEAAGACPEEIFSALQYSGTEVPLQWLRSELPYVLEMVAELAGQQDPGLGAFSCQEARRAWLDRHGNLDEAVEECVRTRRRKVQELQSLGFGPEEGSLQALFQHGGDVSRALTELQRQRLEPFRQRLWDSGPEPTPSWDGPDKQSLVRRLLAVYALPSWGRAELALSLLQETPRNYELGDVVEAVRHSQDRAFLRRLLAQECAVCGWALPHNRMQALTSCECTICPDCFRQHFTIALKEKHITDMVCPACGRPDLTDDTQLLSYFSTLDIQLRESLEPDAYALFHKKLTEGVLMRDPKFLWCAQCSFGFIYEREQLEATCPQCHQTFCVRCKRQWEEQHRGRSCEDFQNWKRMNDPEYQAQGLAMYLQENGIDCPKCKFSYALARGGCMHFHCTQCRHQFCSGCYNAFYAKNKCPEPNCRVKKSLHGHHPRDCLFYLRDWTALRLQKLLQDNNVMFNTEPPAGARAVPGGGCRVIEQKEVPNGLRDEACGKETPAGYAGLCQAHYKEYLVSLINAHSLDPATLYEVEELETATERYLHVRPQPLAGEDPPAYQARLLQKLTEEVPLGQSIPRRRK
notes: HOIP (RNF31) wild type; Construct supplied by Dr. Kazuhiro Iwai; also called RNF31; purified HOIP; source: HEK293T, transfected, mitotic cells
